Legend:
[1] = target: T1, AITR on AITR-overexpressed Jurkat cells (CD5L-AITR-TM-ECD) (human, UniProt Q9Y5U5 26-183, limits assumed); assay: flow cytometry on AITR-overexpressed Jurkat cells
T1 construct: domain: transmembrane domain (TM)-ECD; also called pcDNA3.1(+)/CD5L-AITR-TM-ECD
T1 sequence (looked up): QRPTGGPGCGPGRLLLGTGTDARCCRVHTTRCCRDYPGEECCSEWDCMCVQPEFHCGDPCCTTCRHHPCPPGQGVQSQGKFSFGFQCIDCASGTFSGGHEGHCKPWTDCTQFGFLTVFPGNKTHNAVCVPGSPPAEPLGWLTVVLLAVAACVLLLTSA
Experimental: In the flow cytometry experiment, the present inventors used fluorochrome-conjugated antibodies against CD4, CDS, CD11c, IFN-γ, Foxp3, CTLA-4, CD62L, CD45RO, CD45RA (BD Bioscience), CD19, CD56, CD14, CD127, IL-4, IL-17A, GATA-3, T-bet, RORγt (ebioscience, San Diego, Calif.), and BDCA-2 (Miltenyi Biotec). […] Intracellular level of cytokines was measured after 5 hour-long pre-incubation with 50 ng/ml phorbol 12-myristate 13-acetate (PMA), 10 μg/ml ionomycin, and 10 μg/ml Brefeldin A (Sigma-Aldrich, St Louis. Mo.). FACSCalibur flow cytometer (BD Bioscience) was used for all of the flow cytometry analysis and WinMDI software (Ver. 2.9, Scripps. Institute) was used for data analysis.
For generating AITR-overexpressing cells, the gene fragment encoding AITR-transmembrane domain (TM)-ECD was inserted in-frame with CD5L sequence in a mammalian vector pcDNA3.1(⁺), i.e. pcDNA3.1(⁺)/CD5L-AITR-TM-ECD. Then pcDNA3.1(⁺)/Empty vector or pcDNA3.1(⁺)/CD5L-AITR-TM-ECD vector was transient transfected into Jurkat cells by electroporation. AITR expression on cell surface was detected by staining with biotin-conjugated anti-AITR mAb.

[2] = target: T2, activation-inducible tumor necrosis factor receptor (AITR) on human T cells (human, UniProt Q9Y5U5 26-241); assay: flow cytometry on stimulated PBMC subsets
T2 construct: whole, on cells; also called GITR; TNFRSF18
T2 sequence (looked up): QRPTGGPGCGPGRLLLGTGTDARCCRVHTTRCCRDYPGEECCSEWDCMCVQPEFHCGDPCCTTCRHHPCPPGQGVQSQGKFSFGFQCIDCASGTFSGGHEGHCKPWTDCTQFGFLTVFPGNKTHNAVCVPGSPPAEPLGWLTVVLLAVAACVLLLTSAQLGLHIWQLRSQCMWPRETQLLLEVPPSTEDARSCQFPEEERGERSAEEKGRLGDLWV

B1: anti-AITR mAb B32 (antibody, V domains shown)
VH: EVQLLESGGGLIQPGGSLRLSCAASGFTFSTYGMSWVRQAPGKGLEWVSGITGSAGGGSTNYADSVKGRFTISRDNSKNTLYLQMNSLRAEDTAVYYCAKGYSSNWRSAFDIWGQGTMVTVSS
VL: SYELMQPPSVSVSPGQTAGITCSGDALPKQYAYWYQQRPGQAPVLLIYKDTERPSGIPERFSGSSSGTTVTLTISGVQAEDEADYYCQSADSSGTYPVFGGGTKLTVL
notes: also called clone B32
- binding result [1]: binds
- binding result [2]: binds

Source: patent publication US20180170997A1 (NATIONAL CANCER CENTER, published 2018)
